Measured values from PMC8125063.

Assays:
[1] = biological target: human Fbp2 L190G mutein (human); experiment: SEC; HiLoad 16/600 Superdex 200 pg; 50 mM HEPES-NaOH pH 7.5, 150 mM KCl, 1 mM MgCl2, with or without 100 µM CoCl2 and/or 10 µM AMP; 0.5 mg protein loaded, 1 mL/min
[2] = biological target: human Fbp2 L190G mutein (human); experiment: native gel or EMSA; Native 9% PAGE; 200 mM Glycine-NaOH pH 9.0, 1 mM MgCl2, with or without 100 µM CoCl2 and/or 10 µM AMP in gel and running buffer; 3 h at 254 V

human Fbp2 L190G mutein (enzyme)
stoichiometry N [1]: 2
stoichiometry N [2]: 2
